Measured values: the Human Domainome abundance scans (Beltran et al. 2025)
± gives the uncertainty stated by the source.

B1: Transcriptional repressor p66-beta, residues 415 to 455; numbered along this chain, Q8WXI9 (parent)
chain: VEPFVCAQCRTDFTPHWKQEKNGKILCEQCMTSNQKKALKA
B2: 1-phosphatidylinositol 4,5-bisphosphate phosphodiesterase gamma-2, residues 772 to 827; numbered along this chain, P16885 (parent)
chain: RTVKALYDYKAKRSDELSFCRGALIHNVSKEPGGWWKGDYGTRIQQYFPSNYVEDI

Variants of: B1
Experiment: abundance fitness (aPCA) (normalised: wild type 0, dead -1); higher = more abundant; growth selection in yeast, the domain comes from the species named
Settings: Homo sapiens

Abundance fitness of substitutions, site by site:
L26: T -0.39 ± 0.16, H 0.12 ± 0.38, Q -0.075 ± 0.11, K -0.218 ± 0.13, N -0.411 ± 0.22, P -0.125 ± 0.088, I -0.004 ± 0.2, E -0.194 ± 0.093, S -0.077 ± 0.086, D -0.295 ± 0.097
M31: T -0.054 ± 0.12, A -0.038 ± 0.07, W -0.041 ± 0.072, K -0.043 ± 0.14, P -0.97 ± 0.29
N34: M -0.371 ± 0.2, G -0.156 ± 0.07, T -0.199 ± 0.13, I -0.088 ± 0.41, A -0.076 ± 0.077, L -0.327 ± 0.092, V -0.223 ± 0.065
H16: S -0.084 ± 0.074, K -0.28 ± 0.18, A -0.077 ± 0.074, W 0.017 ± 0.074, Q -0.14 ± 0.11, Y -0.004 ± 0.24, M -0.1 ± 0.1, F -0.005 ± 0.18
K36: T -0.024 ± 0.075, P -0.242 ± 0.14, W -0.256 ± 0.085, E -0.09 ± 0.082, G -0.006 ± 0.053, N 0.14 ± 0.26, I -0.198 ± 0.4, M -0.078 ± 0.09, A -0.062 ± 0.073, S -0.113 ± 0.089
K37: Q 0.168 ± 0.079, G -0.015 ± 0.056, H -0.176 ± 0.23, L -0.036 ± 0.08, R -0.074 ± 0.064, Y -0.116 ± 0.2, N -0.226 ± 0.19, V -0.035 ± 0.076, M 0.095 ± 0.13
E2: I -0.342 ± 0.37, Q -0.297 ± 0.17, D 1.14 ± 0.48, K -0.324 ± 0.11, G -0.299 ± 0.092, H 0.197 ± 0.14, R -0.55 ± 0.15, A -0.352 ± 0.088, T 0.056 ± 0.1
A38: Q -0.541 ± 0.44, E 0.167 ± 0.083, R -0.19 ± 0.064, W -0.398 ± 0.12, G -0.213 ± 0.057, L -0.053 ± 0.094, M -0.181 ± 0.13, T 0.687 ± 0.36
K21: V -0.026 ± 0.093, R 0.129 ± 0.057, Q 0.235 ± 0.1, A 0.008 ± 0.068
W17: R 0.092 ± 0.061, V 0.082 ± 0.069, A -0.009 ± 0.07, Y 0.557 ± 0.4, K 0.387 ± 0.11, P -0.135 ± 0.17, E 0.196 ± 0.11, L 0.051 ± 0.088, Q 0.523 ± 0.13
E20: S -0.115 ± 0.11, I 0.391 ± 0.34, A -0.498 ± 0.099, T -0.315 ± 0.2, Q -0.303 ± 0.13, D -0.645 ± 0.41, P -0.631 ± 0.23, K -0.468 ± 0.37, G -0.034 ± 0.063, R -0.314 ± 0.072, C 0.158 ± 0.13, W -0.362 ± 0.16
S33: C -0.113 ± 0.2, R -0.122 ± 0.072, D 0.002 ± 0.24, Y 0.28 ± 0.2, P -0.011 ± 0.17
N22: W 0.137 ± 0.1, F -0.377 ± 0.18, S 0.382 ± 0.08, L -0.241 ± 0.12
T14: F -0.056 ± 0.21, D -0.347 ± 0.27, H -0.039 ± 0.14, I -0.298 ± 0.13, E -0.041 ± 0.11, K -0.014 ± 0.072, S -0.042 ± 0.12, M -0.527 ± 0.25
Q8: K 0.788 ± 0.075, G 0.934 ± 0.048, E 0.849 ± 0.06, H 0.58 ± 0.14, L 0.723 ± 0.06, V 0.896 ± 0.052, W 0.557 ± 0.057, N 0.741 ± 0.14
Q35: D -0.103 ± 0.1, Y 0.116 ± 0.43, M -0.157 ± 0.18, E 0.025 ± 0.08, K -0.136 ± 0.26, A -0.117 ± 0.063
P15: T 0.078 ± 0.085, G -0.048 ± 0.06, Q -0.137 ± 0.23, W -0.401 ± 0.087, M -0.111 ± 0.1
I25: C -0.192 ± 0.12, A -0.306 ± 0.07, D 0.714 ± 0.27, T -0.054 ± 0.086, M -0.081 ± 0.076, F -0.132 ± 0.14, L -0.158 ± 0.083, E -0.118 ± 0.11
P3: A 0.313 ± 0.087, G 0.22 ± 0.053, H 0.215 ± 0.11, W -0.243 ± 0.2, L 0.095 ± 0.085, V -0.057 ± 0.074, K -0.118 ± 0.16, D -0.521 ± 0.27
V5: Q 0.14 ± 0.084, C -0.351 ± 0.23, K 0.027 ± 0.11, L 0.18 ± 0.068, D -0.568 ± 0.27, M -0.03 ± 0.17
T11: Q 0.312 ± 0.069, F -0.306 ± 0.23, D 0.066 ± 0.44, W -0.133 ± 0.072, G 0.354 ± 0.05, S 0.058 ± 0.064, K 0.427 ± 0.099, P -0.025 ± 0.076
G23: R 0.003 ± 0.067, T 0.045 ± 0.15, H 0.385 ± 0.27, E 0.189 ± 0.083, D 0.343 ± 0.12, Q 0.335 ± 0.22, L 0.142 ± 0.14, N 0.303 ± 0.18
C9: P -0.049 ± 0.15, R -0.436 ± 0.09, Q -0.09 ± 0.097, M -0.716 ± 0.3
C30: L -0.786 ± 0.11, Q -0.795 ± 0.29, E -1.11 ± 0.2, V -0.664 ± 0.13
Q29: S -0.156 ± 0.093, F -0.153 ± 0.12, T -0.253 ± 0.12, W -0.3 ± 0.15, G -0.15 ± 0.07, I -0.177 ± 0.16
K40: E 0.084 ± 0.089, A -0.025 ± 0.071, M -0.066 ± 0.18, S -0.073 ± 0.11
R10: V 0.703 ± 0.058, I 0.521 ± 0.14, N -0.022 ± 0.22, A 0.904 ± 0.067, F 0.608 ± 0.1, C 0.957 ± 0.068, S 0.717 ± 0.059, W 0.338 ± 0.068
F4: D 0.282 ± 0.077, C 0.659 ± 0.067, Y -0.14 ± 0.33, P -0.208 ± 0.18, M 0.64 ± 0.073, H 0.114 ± 0.32, E -0.134 ± 0.091, S -0.169 ± 0.073
C27: M -1.31 ± 0.42, T -1.38 ± 0.32, W -1.02 ± 0.18, H 0.039 ± 0.18, L -1.32 ± 0.27
F13: R -0.144 ± 0.065, D -0.21 ± 0.22, S -0.164 ± 0.079, T 0.039 ± 0.094, K -0.629 ± 0.44, Q -0.593 ± 0.28
V1: A -0.29 ± 0.086, T -0.187 ± 0.36, N -0.178 ± 0.3, E 0.067 ± 0.13, R -0.054 ± 0.12
E28: I -0.418 ± 0.13, C 0.074 ± 0.23, N 0.03 ± 0.13, H -0.066 ± 0.29, W -0.307 ± 0.096, D 0.08 ± 0.17, Q -0.222 ± 0.12, T 0.029 ± 0.17
A41: S 0.004 ± 0.23, K -0.091 ± 0.43, E -0.02 ± 0.27, G 0.01 ± 0.075, L 0.211 ± 0.14, C -0.215 ± 0.2
T32: E -0.186 ± 0.092, V -0.127 ± 0.06
K18: W -0.195 ± 0.073, F -0.312 ± 0.39, M -0.011 ± 0.19, T -0.164 ± 0.17, C 0.01 ± 0.078, L -0.217 ± 0.069, P -0.165 ± 0.11, D -0.099 ± 0.24, G 0.098 ± 0.071, H 0.155 ± 0.38, Y -0.447 ± 0.34
A7: L -0.158 ± 0.061, R 0.075 ± 0.064, F 0.068 ± 0.11, K 0.09 ± 0.11, C 0.325 ± 0.089, G 0.368 ± 0.053, N 0.121 ± 0.13
L39: G 0.157 ± 0.052, K -0.015 ± 0.13, H -0.078 ± 0.14, R -0.016 ± 0.061, V 0.078 ± 0.061, C -0.1 ± 0.16, A -0.083 ± 0.079, I 0.122 ± 0.18, N 0.54 ± 0.45
C6: S -0.911 ± 0.23, N -0.317 ± 0.28, L -0.939 ± 0.24, V -1.08 ± 0.17, A -0.771 ± 0.19, E -1.02 ± 0.21, F -0.944 ± 0.43, K -0.368 ± 0.29, M -1.12 ± 0.22
Q19: R -0.029 ± 0.069, P 0.109 ± 0.13, S -0.044 ± 0.12, C 0.103 ± 0.16, A 0.106 ± 0.066
K24: C -0.213 ± 0.15, E 0.17 ± 0.094, T -0.174 ± 0.14, L -0.106 ± 0.07, Q 0.097 ± 0.094, R 0.028 ± 0.059, G -0.02 ± 0.058
D12: L -0.198 ± 0.1, P -0.118 ± 0.086, C 0.141 ± 0.14, V 0.312 ± 0.059, K -0.274 ± 0.2, T -0.016 ± 0.092, S 0.117 ± 0.086

Variants of: B2
Experiment: as above
Settings: Homo sapiens

Abundance fitness of substitutions, site by site:
K4: F -0.393 ± 0.16, T -0.288 ± 0.13, E -0.216 ± 0.06, A -0.259 ± 0.084, Y 0.019 ± 0.15, Q -0.148 ± 0.15, G -0.782 ± 0.11, V 0.055 ± 0.07, C -0.068 ± 0.11, S -0.514 ± 0.13, W -0.375 ± 0.16, I 0.049 ± 0.14, M -0.127 ± 0.11, R -0.205 ± 0.053, D -0.809 ± 0.47
V3: I -0.689 ± 0.26, C -0.267 ± 0.38, M -0.017 ± 0.1
R1: I -0.141 ± 0.32, C -0.495 ± 0.38, E -0.056 ± 0.14, Y 0.164 ± 0.061, V 0.257 ± 0.36, M -0.07 ± 0.25, G -0.328 ± 0.12, T 0.417 ± 0.11, W 0.23 ± 0.16
T2: Q -0.094 ± 0.11, K -0.207 ± 0.068, N -0.587 ± 0.15, M -0.241 ± 0.15, E -0.279 ± 0.28, C -0.344 ± 0.2, Y -0.177 ± 0.4, A -0.287 ± 0.11, W -0.883 ± 0.29, I -0.111 ± 0.16, G -0.578 ± 0.1, H -0.603 ± 0.12, S -0.089 ± 0.085, V 0.037 ± 0.06, F -0.702 ± 0.41, L -0.315 ± 0.1
A5: I -0.903 ± 0.072, E -0.908 ± 0.12, H -0.976 ± 0.084, G -0.868 ± 0.13, F -0.895 ± 0.07
